# B1: EcAST (Escherichia coli CFT073) (protein)
# chain: AGFKPAPPAGQLGAVIVDPYGNAPLTALVDLDSHVISDVKVTVHGKGEKGVEISYPVGQESLKTYDGVPIFGLYQKFANKVTVEWKENGKVMKDDYVVHTSAIVNNYMDNRSISDLQQTKVIKVAPGFEDRLYLVNTHTFTAQGSDLHWHGEKDKNAGILDAGPATGALPFDIAPFTFIVDTEGEYRWWLDQDTFYDGRDRDINKRGYLMGIRETPRGTFTAVQGQHWYEFDMMGQVLEDHKLPRGFADATHESIETPNGTVLLRVGKSNYRRDDGVHVTTIRDHILEVDKSGRVVDVWDLTKILDPKRDALLGALDAGAVCVNVDLAHAGQQAKLEPDTPFGDALGVGPGRNWAHVNSIAYDAKDDSIILSSRHQGVVKIGRDKQVKWILAPSKGWEKPLASKLLKPVDANGKPITCNENGLCENSDFDFTYTQHTAWISSKGTLTIFDNGDGRHLEQPALPTMKYSRFVEYKIDEKKGTVQQVWEYGKERGYDFYSPITSIIEYQADRNTMFGFGGSIHLFDVGQPTVGKLNEIDYKTKEVKVEIDVLSDKPNQTHYRALLVRPQQMFK
# notes: C-terminal His6 tag, pET-26b(+) NcoI/SacI, E. coli BL21(DE3)pLysS, IMAC, ca. 70 kDa
# Substrate: O=[N+]([O-])c1ccc(OS(=O)(=O)O)cc1
# Assay: purified protein
# Assay type: biochemical, Escherichia coli
# Settings: varied donor pNPS 0.02-50 mM, acceptor phenol (5-200 mM), 30 °C, activity buffer Tris-glycine pH 8.9
protein,measurement,value
B1,Km,710 ± 30 µM
same,kcat,41.1 ± 0.5 s⁻¹
same,kcat/Km,57000 M⁻¹ s⁻¹
